# Results as given in the nanobody polyreactivity screen of Harvey et al. (2022).
# Test: yeast display, Sf9 membrane polyspecificity reagent, FACS + sequencing; frameworks hold sequencing errors
# Method in brief: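 Synthetic nanobody libraries on Saccharomyces cerevisiae BJ5465 were galactose-induced for 36–48 hours, stained 1 hour at 4 °C with 10% biotinylated, detergent-solubilized Sf9 membrane reagent and enriched on streptavidin microbeads. FACS then separated cells into low and high (top ~1%) gates by anti-HA (expression) and streptavidin (reagent binding) fluorescence. Genes were colony-PCR amplified, MiSeq 2 × 250 sequenced and CDR-length filtered. A clone's polyreactivity label is that of its gate of origin.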
row,Sequence,polyreactivity (PSR sort gate)
1,QVQLVESGGGLFQAGGSLRLSCAASGSIFRDNVMVWYIHAPGKERELVAVITSGGSTNYADSVKGRFTISRDNAKNTVYLQMNSLKPEDTAVYYCNAAKTGSQSRLEYWGQGTQVTVSS,high polyreactivity
2,QVQLVESGGGLVQAGGSLRLSCAATGITFIVYVMGWYRQAPGKERELFATISYDDSTYADSVKGSFTISRDNAKNTVYLQMNSLKPEDTAVYYDYWGQGTQVTVSS,low polyreactivity
3,QVQLVESGGGLVQAGGSLRLSCAASGRTFGIYAMGWYRQAPGKERELVAAITGRGGSTHYADSVKGRFTISRDNAKNTVYLQMNSLKPEDTAVYYCAADYRYNRGITSNKDYDYWGQGTQVTVSS,low polyreactivity
4,QVQLVESGGGLLQAGGSLSLSSAASGITCDLYDMGWYRQAPGKERELVAAITDAHSTYYADSVKGRFTNSRDYAKNTVYLQMNSLKPEDTAVYYCAADWYLYLDDKYDYWGQGTQVTVSS,low polyreactivity
5,QVQLVESAGGLVQAGGSLRLSCYASGSIFTRNAMGWYRQAPGKERELVASISYSGGNTYYADSVKGRFTISRDNAKNTVYLQMNSLKPEDTAVYYCAALYSVYRDGYYWGQGTQVTVSS,high polyreactivity
6,QVQLVESGGGLVQAGGSLRISCAASGSIFQNYAMGGYRQAPGKERELVAAINDDSTYYADSVKGRFTISRDNAKNPVDLQMNSLKPEDTAVYYGNKEFLRRQRVTFWHLGGYWGQGTQVTVSS,low polyreactivity
7,QVQLVESGGGLVQAGGSLRLSCAASGRTFGFYAMGWDRQAPGKERELVAVITWSVTSTYYADSVKGRFTISRDNAKNTVYLQMNSLKPEDTAVYYCAAEYVVGASSVRDSLDYGYWGQGTQVTVSS,high polyreactivity
8,QVQLVESGGGLVQAGGSLRLSCAASGSIFLSYNMGRYRQAPGKERELVAAITSGGSTKYADSVKGRFTISRDNAKNTVYLQMNSLKPEDTAVYYCNATPYSRLGYWGQGTQVTVSS,high polyreactivity
9,QVQLVESGGGLVQAGGSLRLSCSASGSIFSNAMGWYRQAPGKERELVAAITGRGGRTYYADSVKGRFTITRDNAKNSVYLQMNSLKPEDTAVYYCARDSPWSSRYRYRAFDYWGQGTQVTVSS,high polyreactivity
10,QVQLVESGGGLVQAGGSLRLSCAASGRIFVYNDMGWYRQAPGKERELVAAISSVGTTYYADSVKGRFTISRDNAKNTVYLQMNSLKPEDTAVYYCAVTRYHSPPRYYYWGQGTQVTVSS,low polyreactivity
11,QVQLEESGGGLVQAGGSLRFSCAASGITFDQNAMGWYRQAPGKEREFVAAISVSGGRTYYADSVKGPFTISRDNAKNSVYLQLNSLKPDDSAVYYCNADYAFYYPLEPLDVGYDYWGQGTQVTVSS,high polyreactivity
12,QVHLVESGGGLVQAGGSLRLSCPASGRTFYRKAMGWDRQAPGKERELVAAITSGGGTTYADSVKGRFTISRDNAKNTVYLQMNSLKPEDTAVYYCAAGRVRRRVLYNYWGQGTQVTVSS,high polyreactivity
13,QVQLVESGGGLVQAGGSLRLSCAASGRTFGYYAMGWYRQAPGKERELVASITTGGSTDYADSVKGRFTISRDNAKNTVYLQMNSLKPEDTAVYYCAAKPNPYTKARYYYWGQGTQVTVSS,high polyreactivity
14,QVQLVESGGGLVQAGGSLRLSCAASGRIFGAYTMGWYRQAPGKERELVAVISSRGTDTYYADSVKGRFTISRDNAKNTVYLQMNSLKPEDTAVYYCAKRWWYTTSPRRSGDYWGQGTQVTVSS,high polyreactivity
15,QVQLVESGGGLVQAGGSLRLSCAASGGTIHSYAMGLYRQANGKERDLVAAISGSGGSTYYADSVKGRFTISRDNAKNTFYLQMNSLKPEDTAVYYCAARDWGDGSEYYYWGQGTQVTVSS,high polyreactivity
16,QVQLVESGGGLVQAGGSLRLSCAASGSTFDFYAMGWYRQAPGKERELVARISSGGGRTYYADSVKGRFTISRDNAKNTVYLQLNSLKPEDTAVYYCATDYPWIFGHFLMDYWGQGTQVTVSS,low polyreactivity
17,QVQLVESGGGLVQAGGSLRLSCAASGRTLYANTMGWYRPAPGKERELVATIPRDGSTNYADSVKGRFTISRDTAKNTVYLQMNSLKPEDTAVYYCNADLWVNLDNDDDYWGQGTQVTVSS,low polyreactivity
18,QVQLVESGGGIVQAGGSLRLSCAASGIIIFYKAMGWDRQAPGKERELVATISRRGGSTYYADSVKGRFTISRDNAKNTVYLQMNSLKPEDTAVYYCARDVGAGSKISRLSSYNYWGQGTQVTVSS,low polyreactivity
19,QVQLVESGGGLVQAGGSLRLSCAASGSIFLAYAMGWYRQAPGKERELVATISSGGSTNYADSVKGRFTISRDNAKNTVYLQMNSLKPEDTAVYYCIADYSIPGYYWPYDYWGQGTQVTVSS,low polyreactivity
20,QDQLVESGGGLVQAGGSLRLSCAASGVTFVTYAMGGSRQAPGKERELVAAITTGGSTNYADSVKGRFTISRDNAKNTVYLQMNSLKPEDTAVYYCAAQRVSVLLFVRHDYWGQGTQVTVSS,low polyreactivity
21,QVQLVESGGGLVQAGGSLRLSCAASGSTFRRYAMGWYRQAPGKERELVASITYRGGSTYYADSVKGRFTISRDNAKNTVYLQMNSLKPEDTAVYYCAKKGVYGPLNEYWGQGTQVTVSS,high polyreactivity
22,QVQLVESGGGLVQAGGSLRLSCAASGSIFAGYAMGWYRQAPGKDRELVAAINWTGDSTYYADSVKGRFTNSRDNAKNTVYLQMNSLKQEDTAVYYCAAIRRQKGLWDYYYWGQGTQVTVSS,low polyreactivity

row,Sequence,polyreactivity (PSR sort gate)
1,QVQLVESGGGLVQAGGSLRLSCAASGSTSDYYAMGWYRQAPGKERELVAAISWSGGSTYYADSVKGRFTISRDNAKNTVYLQMISLKPEDNAVYYCAAQHYNFSGPFEYWGQGTQVTVSS,low polyreactivity
2,QVQLVESGGGLVQAGGSLRLSCAASGSIFTAYAMGWYRQAPGKERELVAAISYGGGSTYYADSVKGRFTISRDNAKNTVYLQMNSLKPEDTAVYYCAAASSGEYGYWGQGTLVTVSS,low polyreactivity
3,QVQLVESGGGLVQAGGSLRLSCAASGSTFLYYSMGWYRQAPGKETELVAAIDSGGSTYYADSVKWRFTISRDNAKNTVYLQMNSLKPEDTAVYYCNPDFADHWPPNGPGAHDYWGQGTQVTVSS,low polyreactivity
4,QVQLVESGGGLVQAGGSLRLSSAASGSTFYKYAMGWNRQTPGKERELVAPITGNSGSTYYADSVKGRFTISRDNAKNTVYLQMNSLKPEDTAVYYCAAARPRVWAFNYWGQGTQVTVSS,low polyreactivity
5,QVQLVESGGGLVQAGGSLRISCAASGFIFYYAMGWYRQAPGKERELVAAISSGSSTYADSVKGRFTISRDNAKNTVYLQMNSMKPEDTAVYYCAAKTQNAYYWGQGTQVTVSS,low polyreactivity
6,QVQLVESGGGLVQAGGSLSLSCAATGSTFWWYAMGWYRQAPGKEREFVAAIRWSSGSTYYADSVKGRFTISRDNAKNTVYLQMNSLKPEDTAVYYCATDDTSNVYVDLDYWGQGTQVTVSS,high polyreactivity
7,QVQLVESGGGLVQAGGSLRLSCAASGITIYRYAMGWYRQAPGKERELVATITWSGGSTYYADSVKGRFTISRDNAKNTVYLQMNSLKPEDTALYYCAAYSPYIYQAYRYDYWGQGTQVTVSS,low polyreactivity
8,QVQLVESGGGLVQAGGSLRLSCSAYGSIFYGYAMGWYRQAPGKERELVAAITWSGGSTYYADSVKGRFTISRDIAKNTVYLQMNSLKPEDTAVYYCNALWVWYRGSSVRWVGGYDYWGQGTQVTVSS,high polyreactivity
9,QVQLVESGGGLVQEGGSLRLRCAASGSIFYRYAMGWYRQAPGKERELVAAISSTGSTYYADSVKGRFTISRDNAKNTVYLQMNSLKPEDTAVYYCAARQGYRSYRRYDYWGQGTQVTVSS,high polyreactivity
10,QVQLVESGGGLVPAGGSLRLSCAASGSIFLAYAMGWYRQAPGKERELVAAITSIDGITSYADSVKGRFTISRDNAKNTVYLQMNSLTPEDTAVSYCAAPDGHWIRQWDTFEYWGQGTQVTVSS,low polyreactivity
11,QDQLVESGGGLVQAGGSLRLSCAASGSIFWLYAMGWYRQAHGKERELVASITGGGSTNYADSVKGRFTISRDNAKNTVYLQMNSLKPEDTAVYYCAKRYYRTGRKRTGLDYWGQGTQVTVSS,high polyreactivity
12,QVQLEESGGGLVQAGGSLRFSCAASGSTFLHYAMGWYRPAPGQERALVAAITWSGGSTYYADSVKGRFTISRDNAKNTVSLQMNSLKPEDTAVYYCAADLTYLYDYHYDYWGQGTQVTVSS,low polyreactivity
13,QVQLVESGGGLVQAGGSLRLSCAASGFTFRWYAMGWYRQAPGKERELVAAITSDDNTYYADSVKGRFTISRDNAKNTVYLQMNSLKPEDTAVYYCAAEYADYWTYNMGYWGQGTQVTVSS,low polyreactivity
14,QVQLVESGGGLVQAGGSLRLSCAASGSIFSCYTMGWYRQAPGKERELVAASTTYADSVKGRFTISRDNAKNTVYLQMNSLKPEDTAVSYCATRHPARRDYWGQGTQVTVSS,low polyreactivity
15,QVHLVESGGGLVQAGGSLRLSCAASGFIFKKYAMGWYRQAPGKERELVAAIDSSGSTTYADSVKGRFTISRDNAKNTVYLQMNSLKPEDTAVYYCAAPFTVYRHAPDMDYWGQGTQVTVSS,low polyreactivity
16,QVQLVESGGGLVQAGGSLRLSCAASGFTFNRTAMGWYRQAPGKERELVAAITRRGGSTYYADSVKGRFTISRDNAKNTVYLQMNSLKPEDTAVYYCAARRGAGDGYWGQGTQVTVSS,high polyreactivity
17,QVQLVESGGGLVQAGGSLRLSCAASGRNFRRYALGLYRQAPGKERELVAAISSGGSTYYADSVKGRFTISRDNAKNTVYLQMNSLKPEDTAVYYCNAKVGAYLNYGYWGQGTQVTVSS,low polyreactivity
18,QVQLVESGGGLVQAGGSLRLSCAASGRIFVYNAMGWYRQAPGKEREFVAAISWDGASTYYADSVKGRFTISRDNAKNTVYLQMNSLKPEDTAVYYCAASYRRKLNYDYWGQGTQVTVSS,low polyreactivity
19,QVKHVESGGGLVQAGGSLRLTCAASGSIFYRNAMGWYRQAPGKERELVAGISRRGGSTYYADSVKGRFTMSRDNAKNTVYLQMNSLKPEDTAGYYCAADFAWVRLTYGYCGQGTQVTVSS,low polyreactivity
20,QVQLVESGGGLVQAGGSLRLSCAASGFTFYGNAMGSSRQAPGKEREWVAAITSTGNTYYADSVTGRFTISRDNAKNTVYLQMNSLKPEDTAVYYCARRGDILYDYWGQGTQVTVSS,low polyreactivity
21,QVQLVESGGGLVQAGGRLRLSCAASGRIFYNYAMGWYRQAPGKERELVASINFSGTRTYYADSVKGRFTISRDYAKNHVYLQMNSLKPEDTAVYYCAARQAHGYYYWGQGTQVTVSS,high polyreactivity
